{"source": "IntAct's records for PubMed 26342861", "parents": {"B1": {"name": "Wnt inhibitory factor 1 (Homo sapiens), Q9Y5W5 (parent)", "chain": "MARRSAFPAAALWLWSILLCLLALRAEAGPPQEESLYLWIDAHQARVLIGFEEDILIVSEGKMAPFTHDFRKAQQRMPAIPVNIHSMNFTWQAAGQAEYFYEFLSLRSLDKGIMADPTVNVPLLGTVPHKASVVQVGFPCLGKQDGVAAFEVDVIVMNSEGNTILQTPQNAIFFKTCQQAECPGGCRNGGFCNERRICECPDGFHGPHCEKALCTPRCMNGGLCVTPGFCICPPGFYGVNCDKANCSTTCFNGGTCFYPGKCICPPGLEGEQCEISKCPQPCRNGGKCIGKSKCKCSKGYQGDLCSKPVCEPGCGAHGTCHEPNKCQCQEGWHGRHCNKRYEASLIHALRPAGAQLRQHTPSLKKAEERRDPPESNYIW", "partner": "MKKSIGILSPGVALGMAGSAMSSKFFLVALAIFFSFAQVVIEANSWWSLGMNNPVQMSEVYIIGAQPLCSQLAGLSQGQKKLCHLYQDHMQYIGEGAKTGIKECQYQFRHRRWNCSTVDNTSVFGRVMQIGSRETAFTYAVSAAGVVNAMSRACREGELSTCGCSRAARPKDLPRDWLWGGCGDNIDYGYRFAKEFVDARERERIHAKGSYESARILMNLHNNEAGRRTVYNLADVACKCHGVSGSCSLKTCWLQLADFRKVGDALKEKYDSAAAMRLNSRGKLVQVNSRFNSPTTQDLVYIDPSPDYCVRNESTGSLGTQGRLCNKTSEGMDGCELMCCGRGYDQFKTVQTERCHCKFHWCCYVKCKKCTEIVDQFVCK"}, "B2": {"name": "Wnt inhibitory factor 1 (Homo sapiens), Q9Y5W5 (parent)", "chain": "B1 chain", "partner": "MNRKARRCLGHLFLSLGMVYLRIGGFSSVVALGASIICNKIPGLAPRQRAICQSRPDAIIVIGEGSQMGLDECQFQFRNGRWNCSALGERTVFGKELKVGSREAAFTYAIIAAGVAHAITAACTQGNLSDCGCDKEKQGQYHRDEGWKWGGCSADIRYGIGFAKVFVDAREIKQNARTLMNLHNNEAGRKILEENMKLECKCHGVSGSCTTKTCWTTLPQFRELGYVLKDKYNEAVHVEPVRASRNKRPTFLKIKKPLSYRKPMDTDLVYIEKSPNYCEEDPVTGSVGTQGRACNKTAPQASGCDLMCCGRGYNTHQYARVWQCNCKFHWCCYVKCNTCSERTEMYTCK"}}}
{"variants_of": "B1", "conditions": "with wnt5a_human WNT5A"}
{"variant": "I155R", "effect of a mutation on the interaction": "disrupting interaction"}
{"variants_of": "B1", "conditions": "with wnt5a_human WNT5A", "remark": "another data set of the same source"}
{"variant": "I155R", "effect of a mutation on the interaction": "decreasing interaction"}
{"variants_of": "B2", "conditions": "with wnt7a_human WNT7A"}
{"variant": "I172R", "effect of a mutation on the interaction": "decreasing interaction"}
{"variant": "L123R", "effect of a mutation on the interaction": "decreasing interaction"}
{"variant": "I155R", "effect of a mutation on the interaction": "decreasing interaction"}
{"variants_of": "B2", "conditions": "with wnt7a_human WNT7A", "remark": "another data set of the same source"}
{"variant": "I155R", "effect of a mutation on the interaction": "increasing interaction"}
